Measurements as given in article PMC5887453 (Nucleic Acids Research, 2018).

Key:
Test in all cases: native gel or EMSA
PhoEF-2 N227S = molecular target: T1, PhoEF-2 N227S (Pyrococcus horikoshii, UniProt O59521 1-732, N227S)
T1 sequence (looked up): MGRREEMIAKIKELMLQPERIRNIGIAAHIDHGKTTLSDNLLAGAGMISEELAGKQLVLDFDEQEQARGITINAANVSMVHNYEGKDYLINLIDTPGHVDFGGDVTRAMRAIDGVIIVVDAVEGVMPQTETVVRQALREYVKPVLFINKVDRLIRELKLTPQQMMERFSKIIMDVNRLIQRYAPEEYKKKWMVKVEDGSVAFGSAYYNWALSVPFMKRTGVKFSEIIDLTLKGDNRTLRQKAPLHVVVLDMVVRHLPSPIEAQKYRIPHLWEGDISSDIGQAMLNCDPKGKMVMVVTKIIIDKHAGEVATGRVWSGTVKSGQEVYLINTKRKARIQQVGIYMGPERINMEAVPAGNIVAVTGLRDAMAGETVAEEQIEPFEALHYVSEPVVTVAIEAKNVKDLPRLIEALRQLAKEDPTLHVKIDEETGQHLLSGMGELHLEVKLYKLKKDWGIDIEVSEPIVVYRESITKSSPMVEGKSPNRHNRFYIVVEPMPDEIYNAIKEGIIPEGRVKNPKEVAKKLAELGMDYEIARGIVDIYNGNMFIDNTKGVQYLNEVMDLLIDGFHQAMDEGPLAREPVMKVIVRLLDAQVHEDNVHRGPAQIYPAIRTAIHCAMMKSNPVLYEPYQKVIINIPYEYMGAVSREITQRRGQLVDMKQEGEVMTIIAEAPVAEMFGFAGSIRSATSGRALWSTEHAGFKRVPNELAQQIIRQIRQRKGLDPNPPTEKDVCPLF

PhoEF-2 F171S = molecular target: T2, PhoEF-2 F171S (Pyrococcus horikoshii, UniProt O59521 1-732, F171S)
T2 sequence (looked up): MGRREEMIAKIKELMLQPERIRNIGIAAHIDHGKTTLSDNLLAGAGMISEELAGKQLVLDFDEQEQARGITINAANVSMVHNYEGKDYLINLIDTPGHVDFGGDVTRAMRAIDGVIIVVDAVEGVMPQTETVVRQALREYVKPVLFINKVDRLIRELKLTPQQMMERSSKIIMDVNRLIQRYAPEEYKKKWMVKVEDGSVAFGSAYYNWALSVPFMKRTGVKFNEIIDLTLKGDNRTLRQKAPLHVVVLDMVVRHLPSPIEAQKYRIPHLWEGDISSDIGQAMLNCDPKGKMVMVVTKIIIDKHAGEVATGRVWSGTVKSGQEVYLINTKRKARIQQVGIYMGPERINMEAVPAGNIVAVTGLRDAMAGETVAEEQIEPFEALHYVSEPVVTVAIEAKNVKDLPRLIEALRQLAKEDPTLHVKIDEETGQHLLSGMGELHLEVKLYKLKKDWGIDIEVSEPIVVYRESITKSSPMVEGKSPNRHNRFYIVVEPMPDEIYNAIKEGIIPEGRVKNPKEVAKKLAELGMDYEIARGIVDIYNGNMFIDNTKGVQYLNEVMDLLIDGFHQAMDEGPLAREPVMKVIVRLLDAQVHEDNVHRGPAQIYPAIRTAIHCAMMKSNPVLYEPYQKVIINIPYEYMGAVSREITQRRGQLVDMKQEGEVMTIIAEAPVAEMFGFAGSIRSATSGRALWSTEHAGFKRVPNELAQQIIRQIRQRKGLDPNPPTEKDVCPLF

PhoEF-2 M167S = molecular target: T3, PhoEF-2 M167S (Pyrococcus horikoshii, UniProt O59521 1-732, M167S)
T3 sequence (looked up): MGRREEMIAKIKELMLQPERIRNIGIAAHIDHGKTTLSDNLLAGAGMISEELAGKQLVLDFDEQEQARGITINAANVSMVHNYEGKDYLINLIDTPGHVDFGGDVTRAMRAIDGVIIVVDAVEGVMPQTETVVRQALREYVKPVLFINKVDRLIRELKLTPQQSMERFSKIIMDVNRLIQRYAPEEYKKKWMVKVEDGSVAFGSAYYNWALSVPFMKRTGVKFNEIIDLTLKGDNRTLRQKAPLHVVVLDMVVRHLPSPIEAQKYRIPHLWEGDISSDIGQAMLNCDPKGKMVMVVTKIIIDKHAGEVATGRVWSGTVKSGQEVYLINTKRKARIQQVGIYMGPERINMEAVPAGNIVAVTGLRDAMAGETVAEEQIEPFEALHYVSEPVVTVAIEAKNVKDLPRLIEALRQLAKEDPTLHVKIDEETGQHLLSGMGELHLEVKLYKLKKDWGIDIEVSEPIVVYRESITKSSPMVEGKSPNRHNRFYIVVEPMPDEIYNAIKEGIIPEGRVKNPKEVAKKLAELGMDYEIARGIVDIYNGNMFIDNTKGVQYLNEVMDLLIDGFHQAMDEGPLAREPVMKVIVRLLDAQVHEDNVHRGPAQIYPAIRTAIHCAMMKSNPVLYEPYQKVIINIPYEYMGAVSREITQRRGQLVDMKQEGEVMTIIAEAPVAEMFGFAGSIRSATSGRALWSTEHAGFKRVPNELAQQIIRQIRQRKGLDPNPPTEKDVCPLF

Measured: binding result

B1: Pyrococcus horikoshii ribosomal stalk protein P1 (natural protein, UniProt O57705 1-108, looked up)
chain: MEYVYAALLLHSVGKEINEENLKAVLQAAGVEPEEARIKALVAALEGVNIDEVIEKAAMPVAVAAAPAAAPAEAGGEEKKEEEKKEEEEKEEEVSEEEALAGLSALFG
modifications: in the SPR only: biotin on amino groups via a PEG linker (EZ-Link NHS-PEG4-Biotin)
binds: all assays above
